The source of these data is US20020103136.

In series [1] the test system is Ac-(4-trans-L-Hyp)SSChgQ-SPheol-(dAc)-VIN.
Series [2] has as its system Ac-4-trans-L-Hyp-SSChgQ-SS-(HCAP)-(dAc)-VIN.
Series [3] has as its system Ac-4-trans-L-HypSSChgQS-cyclohexylalaninol-(dAc)-VIN.
For series [4], the system named is Ac-4-trans-L-HypSSChgQSP(HCAP)-VIN.
In series [5] the test system is Ac-AbuSSChgQ-S-(HCAP)-VIN.
The subject of series [6] is Ac-AbuSSChgQ-SP-(HCAP)-(dAc)-VIN.
For series [7], the system named is Ac-SChgQ-SP-(HCAP)-(dAc)-VIN.
The subject of series [8] is Ac-SChgQ-SS(4-trans-L-Hyp)-(HCAP)-dAc-VIN.
Series [9] has as its system Ac-SChgQSS(PIP)-(HCAP)-dAc-VIN.
The subject of series [10] is Ac-SChgQSS-Sar-(HCAP)-dAc-VIN.
The test system of series [11] is Ac-SChgQSS-gammaAbu-(HCAP)-dAc-VIN.
For series [12], the system named is Ac-SSChgQ-SP-(HCAP)-(dAc)-VIN.
The test system of series [13] is Ac-SSChgQ-SSP-(HCAP)-dAc-VIN.
The test system of series [14] is N-hydroxyacetyl-AbuSSChgQ-SP-(HCAP)-(dAc)-VIN.

With free prostate specific antigen (PSA), the Time to 50% Substrate Cleavage by York PSA in series [1] was 25 min; in series [2], 17 min; in [3], 10 min; in [4] it was 8 min; in series [6] it was 18 min; in series [7], 13 min. The Time to 50% Substrate Cleavage by York PSA came out at 7 min in [8]; 8 min in the series with Ac-SChgQ-SSP-(HCAP)-VIN; 60 min in the series with Ac-SChgQS-Abu-(HCAP)-VIN; 12 min with Ac-SChgQSS(HCAP)-dAc-VIN; 22 min in series [9]; 13 min in series [10]. In addition, the Time to 50% Substrate Cleavage by York PSA in [11] was determined as 12 min; in [12] it was 30 min; in [13] it was 8 min; in series [14] it was 11 min. In addition, in series [5], the “Substrate cleavage by York PSA at 1 hour (printed in the column 'Time to 50% Substrate Cleavage by York PSA (Min)')” value stood at 1 HOUR = 28%.
